Key:
Assay in all cases: SPR
[1] = target: HAdV-C5 hexon (human adenovirus C5 (strain Ad75)) (UniProt P04133)
[2] = target: HAdV-A31 hexon (human adenovirus A31 (strain 1315/63))
[3] = target: HAdV-B35 hexon (human adenovirus B35 (strain Holden))

Substance | Kd [1] | koff [1] | kon [1] | Kd [2] | koff [2] | kon [2] | Kd [3] | koff [3] | kon [3]
human lactoferrin (hLF) (natural protein) | 29 nM | 0.00154 s⁻¹ | 53000 M⁻¹ s⁻¹ | 0.827 µM | 0.0101 s⁻¹ | 12000 M⁻¹ s⁻¹ | 0.151 µM | 0.00354 s⁻¹ | 25000 M⁻¹ s⁻¹
human lactoferricin 1-49 (hLfcin1-49) (peptide) | 730 nM |  |  | 187 µM |  |  | 22.1 µM |  | 

Source: paper PMC7343212, “Lactoferrin-Hexon Interactions Mediate CAR-Independent Adenovirus Infection of Human Respiratory Cells” (Journal of Virology, 2020)
